Measurements as given in paper PMC8285061.

T1: His6-Pal2 (Pal2-deltaN65) (Saccharomyces cerevisiae, UniProt P38809 65-366)
T1 sequence: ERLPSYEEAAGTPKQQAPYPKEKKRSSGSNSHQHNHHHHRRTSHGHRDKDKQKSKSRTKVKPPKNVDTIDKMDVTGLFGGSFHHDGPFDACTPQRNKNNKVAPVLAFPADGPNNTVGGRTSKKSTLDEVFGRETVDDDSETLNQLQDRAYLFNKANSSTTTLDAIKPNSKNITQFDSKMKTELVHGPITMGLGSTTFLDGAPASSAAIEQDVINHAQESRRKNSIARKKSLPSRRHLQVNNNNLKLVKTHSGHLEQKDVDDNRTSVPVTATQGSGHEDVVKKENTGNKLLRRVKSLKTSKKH

T2: His6-Pal1 (Pal1-deltaN) (Saccharomyces cerevisiae, UniProt Q05518 165-499)
T2 sequence: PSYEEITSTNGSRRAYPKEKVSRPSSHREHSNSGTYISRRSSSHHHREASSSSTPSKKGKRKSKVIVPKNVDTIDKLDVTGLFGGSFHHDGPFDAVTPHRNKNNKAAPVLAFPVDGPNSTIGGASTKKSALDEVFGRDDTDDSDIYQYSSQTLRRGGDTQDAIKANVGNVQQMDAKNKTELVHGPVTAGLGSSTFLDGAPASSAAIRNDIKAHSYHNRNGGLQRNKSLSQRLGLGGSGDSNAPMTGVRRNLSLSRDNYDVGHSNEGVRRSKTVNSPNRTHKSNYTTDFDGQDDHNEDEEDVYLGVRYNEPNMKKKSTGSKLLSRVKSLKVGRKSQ

B1: unlabeled 3'-BE transcript (structured_RNA)
RNA: GGGCGUGAGGUUGGCGCGCCCUCCUACAAUUAUUUGUGGCGACUGGGCAGCGACACUGAACA
B2: Flc-3'-BE (HAC1 3'-UTR bipartite element) (structured_RNA)
RNA: CGUGAGGUUGGCGCGCCCUCCUACAAUUAUUUGUGGCGACUGGGCAGCGACACUGAACA

Assays:
[1] = molecular target: T1, His6-Pal2 (Pal2-deltaN65); assay: competition
[2] = molecular target: T1, His6-Pal2 (Pal2-deltaN65); assay: EMSA
His6-Pal1 (Pal1-deltaN) = molecular target: T2, His6-Pal1 (Pal1-deltaN); assay: EMSA
His6-Ypt1 = His6-Ypt1 (UniProt P01123 1-206); assay: EMSA
His6-Ypt1, sequence (P01123 whole entry): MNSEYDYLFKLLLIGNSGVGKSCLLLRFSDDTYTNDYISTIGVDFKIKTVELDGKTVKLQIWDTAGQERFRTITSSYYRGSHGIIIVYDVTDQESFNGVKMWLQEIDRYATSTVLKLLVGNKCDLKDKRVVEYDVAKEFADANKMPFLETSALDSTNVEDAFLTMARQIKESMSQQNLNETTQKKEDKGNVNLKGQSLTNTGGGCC

Row | Binder | binding result [1] | binding result [2] | binding result (His6-Pal1 (Pal1-deltaN)) | binding result (His6-Ypt1)
1 | B1 | binds |  |  | 
2 | B2 |  | binds | binds | no binding
